Measured values reported in publication PMC4245980.

Assays:
Assay in all cases: EMSA
McbR E93S/R139F = McbR E93S/R139F (Escherichia coli, UniProt P76114 1-221, E93S;R139F)
McbR R89A/E93A/R139A = McbR R89A/E93A/R139A (Escherichia coli, UniProt P76114 1-221, R89A;E93A;R139A)
McbR WT = McbR WT (Escherichia coli, UniProt P76114 1-221)

Measured: binding result

B1: PyciGECO (dsDNA)
DNA 1: AATTGTTAATATATCCAGAATGTTCCTCAAAATATATTTTCCCTCTAT
DNA 2: ATAGAGGGAAAATATATTTTGAGGAACATTCTGGATATATTAACAATT
binds: all assays above
